For four sequences, Kd results are on record in PMC8178753.

pKd: −log10 of the molar value.

Data set [1] deals with PkKKT2a central domain (551-679) (Perkinsela sp. CCAP 1560/4). The experiment in a line: fluorescence anisotropy. To be noted: fluorescein (6-FAMK) in place of T37 of forward strand; 25 mM Hepes pH 7.5, 50 mM NaCl, 1 mM TCEP; FA: 1 nM FAM-dsDNA, 20 min RT, read at 25°C; EMSA: 200 nM dsDNA, 0.78-30 µM protein, 30 min RT, native PAGE at 4°C. Background: In fluorescence polarisation assays a small probe gives low polarisation when free and higher when bound to something large.

For data set [2], the system named is designed zinc finger (Jantz and Berg, 2010) (synthetic construct). The experiment in a line: fluorescence anisotropy. As to conditions: fluorescein (6-FAMK) in place of T9 of reverse strand; 25 mM Hepes pH 7.5, 50 mM NaCl, 1 mM TCEP; FA: 1 nM FAM-dsDNA, 20 min RT, read at 25°C; EMSA: 200 nM dsDNA, 0.78-30 µM protein, 30 min RT, native PAGE at 4°C.

The term pKd denotes −log10 of the Kd, conventionally taken in molar units. High values mean a small Kd, low ones a large Kd. In data set [1], “CGCAGATCCGCGGGGCCCGTGCCGACGCGCGGGCATTGTCCGTGAGGTGA (double strand) [50 mer 74% GC FAM (BA2218)]” showed a pKd of 6.30.
For the sequence “CAATATGTAAGGTGTTTTGGTGTAAAACACGCATTCTTGCATAACATGCA (double strand) [50 mer CEN FAM (BA1674)]”, the negative logarithm of the Kd (pKd) in data set [1] was 6.30.
In data set [2], “CGATCGTTGAGGCAGAACCTGATCA (double strand) [designed DNA FAM (BA3083)]” showed a pKd of 8.10.
Sequence “AGGTAACTAGAAGAATTGTAATATTCTAAATGTTGATCCATTTGAATCAT (double strand) [50 mer 26% GC FAM (BA2216)]” showed a pKd in data set [1] of 6.30.
